B1: OR4K15 (parent)
chain: GUUAACGGUCAUAGGCCAUGGAAACUAGGAGCACCAUUUCGCUGCCAGUGAAGAAAUGAACAAAGAAAAUCUGGGCCAGGCAGGCAUCAAAAGAAAUAGUCUUGCGCUCAACCAGAAAGUCUGUAAUCAUUUUAAGGGUA

Variants of: B1
Test: self-cleavage, relative activity (ratio to wild type); higher = more cleavage; in vitro, sequencing; the parent is a self-cleaving ribozyme

In order of falling self-cleavage:
1. G44C U102C  2.81
2. U43C G123A  2.35
3. U43G A51G  2.35
4. G48A A51G  2.22
5. A47U U100C  2.2
6. C46U A67U  2.2
7. G44A C77U  2.17
8. U43G A51U  2.16
9. C46U U139C  2.16
10. U43C U102C  2.15
11. C46U A89G  2.15
12. G44A A63C  2.07
13. G48A A92G  2.02
14. G44U A66U  2.02
15. U43G U49C  2.01
16. U43C A135G  2.01
17. C45U G119A  1.99
18. C45U A68C  1.95
19. U43C U87A  1.94
20. C45U U49G  1.93
21. C46U G138A  1.91
22. U43C A90U  1.83
23. C46U A62U  1.83
24. A47C U49G  1.78
25. A47U U97A  1.74
26. A47G A52U  1.73
27. C45G A55G  1.73
28. G48A U49C  1.73
29. C45A A134G  1.72
30. C45U  1.72
31. U43G A54C  1.71
32. U43G A66G  1.69
33. G44A U122C  1.67
34. G48A A92U  1.62
35. C45A  1.6
36. C45A A98U  1.6
37. G44A A54G  1.57
38. C46U A129G  1.52
39. U43C A59U  1.48
40. A47G U139C  1.45
41. C45U A140G  1.42
42. C46U A86G  1.41
43. C46U U139A  1.41
44. A47G U139A  1.4
45. G48A U120C  1.38
46. C45G  1.37
47. G48C A67G  1.37
48. U43C U131C  1.36
49. U43C U122A  1.34
50. A47G U127A  1.33
51. G48U U102C  1.31
52. A47C A116G  1.3
53. U43C U139A  1.3
54. C45U A60G  1.29
55. U43C A66G  1.29
56. U43C U70G  1.28
57. A47G A135G  1.27
58. A47G U102C  1.25
59. G48A A59G  1.25
60. A47C U49C  1.24
61. A47U A94G  1.22
62. C46U U122A  1.22
63. U43C U49C  1.22
64. A47G A54G  1.22
65. A47G U97A  1.21
66. G44C C46A  1.19
67. U43C A56G  1.18
68. A47U U70G  1.16
69. A47G A110U  1.15
70. U43C A51G  1.14
71. A47G A67G  1.12
72. C46U A56G  1.12
73. A47G A66U  1.11
74. G48A U102A  1.1
75. A47G U97C  1.08
76. U43A U127C  1.07
77. A47G A63U  1.03
78. A47G A92G  1.02
79. U49A A51G  1.02
80. A47G A125U  1.01
81. U43C U102A  1
82. A47U A66U  0.99
83. C45U A126G  0.97
84. A47U U49A  0.97
85. A47G A54U  0.97
86. A47G  0.96
87. C46A A91G  0.95
88. U43G A134G  0.89
89. A47C  0.88
90. A47G A52G  0.87
91. U43C U57G  0.87
92. G48A A59U  0.86
93. A47G A98U  0.85
94. U43C U70C  0.83
95. A47G A94G  0.82
96. U43C U122C  0.81
97. A47G A90U  0.8
98. A47G U102A  0.78
99. C45G A116G  0.77
100. C45U A114G  0.75
101. A47C A92U  0.74
102. A47G A60G  0.74
103. A47U A69G  0.73
104. A47U  0.72
105. A47U A90G  0.72
106. A47U A126C  0.72
107. U43C A135U  0.71
108. G44A A63G  0.71
109. A47U A54G  0.67
110. A47U U122C  0.67
111. A47G A129G  0.64
112. A47G A62G  0.63
113. A47G U127C  0.59
114. C45U U103C  0.54
115. U43C A116G  0.53
116. A47G A82G  0.51
117. A47G A52C  0.5
118. A47U U124C  0.5
119. A47U A68G  0.48
120. U43C A116U  0.46
121. A47U U102A  0.45
122. U43C A98G  0.44
123. A47U A60G  0.42
124. A47G A89U  0.42
125. A47G A118G  0.41
126. A47G U102G  0.41
127. U43C A78U  0.4
128. A47U U49C  0.36
129. U43C A82G  0.36
130. U43C U87C  0.35
131. A47G A116G  0.35
132. A47G U130C  0.33
133. A47G A98G  0.3
134. A47G A125G  0.28
135. A47U U102G  0.28
136. G44C A82U  0.27
137. C45A U127C  0.26
138. C46A A118U  0.26
139. A47G A114G  0.24
140. G44A A82U  0.23
141. A47G A66G  0.23
142. U43C G74C  0.23
143. C46U U72C  0.21
144. G44A A110G  0.14
145. A47U U70C  0.13
146. A47U U72A  0.13
147. C45U A114U  0.13
148. G48A A82U  0.12
149. U43C G79U  0.12
150. U43C A59C  0.12
151. A47G G115U  0.09
152. A47G A82U  0.07
153. A47U A114U  0.06
154. A47U A116C  0.05
155. U43C A114U  0.05
156. U43C A114C  0.03
157. A47G A116C  0.03
158. U43C C107U  0.02
159. A47G A111G  0.02
160. U43C A111G  0.02
161. A47U G106A  0.01
162. A47U G106U  0.01
163. C45U U108A  0.01
164. A47U U108C  0.01
165. U43C U103G  0.01
166. G48A U108A  0.01
167. G44U A52U  0

— the RNAGym collection of RNA variant scans (doi:10.7554/elife.90254)
